Article PMC4372062 (Biochemistry, 2014)

Target: the molecule itself
Assay: native gel or EMSA

B1: Fenna–Matthews–Olson antenna protein (FMO) (natural protein, UniProt Q46393 1-366, looked up)
chain: MALFGSNDVTTAHSDYEIVLEGGSSSWGKVKARAKVNAPPASPLLPADCDVKLNVKPLDPAKGFVRISAVFESIVDSTKNKLTIEADIANETKERRISVGEGMVSVGDFSHTFSFEGSVVNLFYYRSDAVRRNVPNPIYMQGRQFHDILMKVPLDNNDLIDTWEGTVKAIGSTGAFNDWIRDFWFIGPAFTALNEGGQRISRIEVNGLNTESGPKGPVGVSRWRFSHGGSGMVDSISRWAELFPSDKLNRPAQVEAGFRSDSQGIEVKVDGEFPGVSVDAGGGLRRILNHPLIPLVHHGMVGKFNNFNVDAQLKVVLPKGYKIRYAAPQYRSQNLEEYRWSGGAYARWVEHVCKGGVGQFEILYAQ
stoichiometry N: 3
